Experimental findings from patent US20120316071A1 (published 2012) are described below.

Assay [1] addresses T1, rHuman Notch-1/Fc Chimera, CF (R&D Systems Cat#3647-TK) (human, UniProt P46531 19-526).
T1 construct: Bought recombinant protein; Fc part of the bought chimera not given
Briefly: ECL multispot (MSD), 20 nM Fab.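 Also: purified Fab binding to antigens on multispot plates, read by electrochemiluminescence with a TAG-labelled detection antibody, 1 h Fab incubation at 20 °C, signal expressed relative to each well's blank.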

The target of assay [2] is T2, rHuman P-Cadherin/Fc Chimera, CF (R&D Systems Cat#861-PC) (human, UniProt P22223 108-654).
T2 construct: Bought recombinant protein; Fc part of the bought chimera not given
Description: ECL multispot (MSD), 20 nM Fab.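 Also: purified Fab binding to antigens on multispot plates, read by electrochemiluminescence with a TAG-labelled detection antibody, 1 h Fab incubation at 20 °C, signal expressed relative to each well's blank.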

Assay [3] deals with T3, rHuman EGF R/Fc Chimera, CF (R&D Systems Cat#344-ER) (human, UniProt P00533 25-645).
T3 construct: Bought recombinant protein; also called epidermal growth factor receptor; Fc part of the bought chimera not given
Description: ECL multispot (MSD), 20 nM Fab.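 Also: purified Fab binding to antigens on multispot plates, read by electrochemiluminescence with a TAG-labelled detection antibody, 1 h Fab incubation at 20 °C, signal expressed relative to each well's blank.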

For assay [4], the target named is T4, rHuman Erythropoietin R/Fc Chimera, CF (R&D Systems Cat#963-ER) (human, UniProt P19235 25-250).
T4 construct: Bought recombinant protein; also called EPO R; EPO R/Fc; Fc part of the bought chimera not given
T4 sequence (looked up): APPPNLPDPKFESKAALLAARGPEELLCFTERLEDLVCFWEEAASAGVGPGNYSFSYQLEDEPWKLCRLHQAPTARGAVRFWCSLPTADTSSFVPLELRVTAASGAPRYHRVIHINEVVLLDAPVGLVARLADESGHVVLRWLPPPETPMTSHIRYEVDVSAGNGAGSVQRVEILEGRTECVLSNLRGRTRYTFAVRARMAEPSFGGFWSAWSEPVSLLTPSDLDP
Description: ECL multispot (MSD), 20 nM Fab.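 Also: purified Fab binding to antigens on multispot plates, read by electrochemiluminescence with a TAG-labelled detection antibody, 1 h Fab incubation at 20 °C, signal expressed relative to each well's blank.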

Assay [5] has as its target T5, rHuman ErbB2/Fc Chimera, CF (R&D Systems Cat#1129-ER) (human, UniProt P04626 23-652).
T5 construct: Bought recombinant protein; also called human epidermal growth factor 2 receptor; Fc part of the bought chimera not given
Briefly: ECL multispot (MSD), 20 nM Fab.

Assay [6] addresses T6, rHuman CD44/Fc Chimera, CF (R&D Systems Cat#3660-CD) (human, UniProt P16070 21-220).
T6 construct: Bought recombinant protein; Fc part of the bought chimera not given
Description: ECL multispot (MSD), 20 nM Fab.

For assay [7], the target named is T7, rHuman IGF-1 sR, (IGF-1 sR), CF (R&D Systems Cat#391-GR) (human, UniProt P08069 31-932).
T7 construct: Bought recombinant soluble receptor; also called insulin-like growth factor-1 soluble receptor
Description: ECL multispot (MSD), 20 nM Fab.

In assay [8] the target is T8, rHuman HGF R/c-MET/Fc Chimera, CF (R&D Systems Cat#358-MT/CF) (human, UniProt P08581 25-932).
T8 construct: Bought recombinant protein; also called HGF R/Fc; hepatocyte growth factor receptor; Fc part of the bought chimera not given
Briefly: ECL multispot (MSD), 20 nM Fab.

Assay [9] concerns the target T9, Recombinant Human DLL4 (R&D Systems Cat#1506-D4/CF) (human, UniProt Q9NR61 27-524).
T9 construct: Bought recombinant protein; also called delta-like protein 4; rHuman DLL4
Description: ECL multispot (MSD), 20 nM Fab.

Assay [10] concerns the target T10, rHuman IGF-1 sR, CF (R&D Systems Cat#391-GR) (human, UniProt P08069 31-932).
T10 construct: Bought recombinant soluble receptor; also called insulin-like growth factor-1 soluble receptor
Briefly: Multispot ECL (MSD), antigen spotted on plate, Fab 36 nM; blank spot 413.

The target of assay [11] is T11, rHuman CD44/Fc Chimera, CF (R&D Systems Cat#3660-CD) (human, UniProt P16070 21-220).
T11 construct: Bought recombinant protein; Fc part of the bought chimera not given
Described as above.

In assay [12] the target is T12, rHuman Erythropoietin R/Fc Chimera, CF (R&D Systems Cat#963-ER) (human, UniProt P19235 25-250).
T12 construct: Bought recombinant protein; also called EPO R/Fc; Epo R; Fc part of the bought chimera not given
T12 sequence (looked up): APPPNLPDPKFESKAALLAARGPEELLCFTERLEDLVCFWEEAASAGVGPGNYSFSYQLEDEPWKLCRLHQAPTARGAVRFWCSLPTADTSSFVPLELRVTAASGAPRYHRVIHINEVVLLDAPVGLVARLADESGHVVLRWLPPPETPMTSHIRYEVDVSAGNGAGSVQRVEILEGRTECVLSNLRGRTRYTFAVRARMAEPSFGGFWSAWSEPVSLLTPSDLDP
Described as above.

Assay [13] has as its target T13, rHuman ErbB2/Fc Chimera, CF (R&D Systems Cat#1129-ER) (human, UniProt P04626 23-652).
T13 construct: Bought recombinant protein; also called human epidermal growth factor 2 receptor (ErbB2); Fc part of the bought chimera not given
Described as above.

Assay [14] deals with T14, rHuman P-Cadherin/Fc Chimera, CF (R&D Systems Cat#861-PC) (human, UniProt P22223 108-654).
T14 construct: Bought recombinant protein; Fc part of the bought chimera not given
The assay is described as above.

The target in assay [15] is T15, rHuman HGF R/c-MET/Fc Chimera, CF (R&D Systems Cat#358-MT/CF) (human, UniProt P08581 25-932).
T15 construct: Bought recombinant protein; also called HGF R/Fc; hepatocyte growth factor receptor (HGF R/c-Met); Fc part of the bought chimera not given
The assay is described as above.

Assay [16] concerns the target T10, rHuman IGF-1 sR, CF (R&D Systems …). Description: Multispot ECL (MSD), antigen spotted on plate, Fab 360 nM; blank spot 462.
For assay [17], the target named is T11, rHuman CD44/Fc Chimera, CF (R&D Systems …). The assay is described as above.
The target in assay [18] is T12, rHuman Erythropoietin R/Fc Chimera, CF …. The assay is described as above.
In assay [19] the target is T13, rHuman ErbB2/Fc Chimera, CF (R&D …). The assay is described as above.
Assay [20] deals with T14, rHuman P-Cadherin/Fc Chimera, CF (R&D …). The description is as above.
For assay [21], the target named is T15, rHuman HGF R/c-MET/Fc Chimera, CF (R&D …). Described as above.
Assay [22] addresses T16, Recombinant Human DLL4 (delta-like protein 4) (human, UniProt Q9NR61 27-524).
T16 construct: Bought recombinant protein; also called rHuman DLL4; Delta-like 4
Briefly: SPR, Fab on recombinant human DLL4; column head x10^5 applied; (±6.24) at r15c3.

For assay [23], the target named is T16, Recombinant Human DLL4 (delta-like …). Description: SPR, Fab on recombinant human DLL4; (±8.5) at r15c5.
The target is the same in assay [24]. Description: SPR, Fab on recombinant human DLL4; column head x10^-3 applied as printed, but KD x ka implies 0.0717 s^-1 unscaled; (±0.00351) at r15c4.
For assay [25] the target is unchanged. Briefly: SPR, Fab on recombinant human DLL4; column head x10^-3 applied as printed, but KD x ka implies 0.101 s^-1 unscaled; (±0.0153) at r18c4.
For assay [26] the target is unchanged. Description: SPR, Fab on recombinant human DLL4; column head x10^5 applied; (±4.16) at r18c3.
Assay [27] shares this target. Briefly: SPR, Fab on recombinant human DLL4; (±9.3) at r18c5.
The target is the same in assay [28]. Briefly: SPR, Fab on recombinant human DLL4; column head x10^5 applied; (±0.6) at r13c3.
Assay [29] shares this target. Briefly: SPR, Fab on recombinant human DLL4; column head x10^-3 applied as printed, but KD x ka implies 0.0845 s^-1 unscaled; (±0.0050) at r13c4.
For assay [30] the target is unchanged. Briefly: SPR, Fab on recombinant human DLL4; (±6) at r13c5.
Assay [31] addresses T17, Recombinant Human DLL4 (R&D Systems Cat#1506-D4/CF) (human, UniProt Q9NR61 27-524).
T17 construct: Bought recombinant human DLL4 coated on the ECL plate; also called delta-like protein 4; Delta-like 4
Description: ECL (MSD) binding assay, DLL4 coated on plate, Fab 0.04 uM.

B1: Fab VH3-23_IGHD2-21*01>3_IGHJ6*01 H100E/S108P/Y113G (EPG) Y109P & V2-13_IGLJ2*01 (Fab, V domains shown)
VH: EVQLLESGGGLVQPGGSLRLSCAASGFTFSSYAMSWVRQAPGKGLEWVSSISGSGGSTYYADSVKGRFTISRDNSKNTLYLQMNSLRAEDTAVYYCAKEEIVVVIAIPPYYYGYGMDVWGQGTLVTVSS
VL: SSELTQDPAVSVALGQTVRITCQGDSLRSYYASWYQQKPGQAPVLVIYGKNNRPSGIPDRFSGSSSGNTASLTITGAQAEDEADYYCNSRDSSGNHLVVFGGGTKLTVL
notes: Fab; NNK mutant of the EPG heavy chain; CH1 (tags) and lambda CL come from the vectors
In the case of B1, the “ECL signal ratio (column head gives no unit)” value was determined as 1.1 in assay [1]; 1.9 in assay [2]; 1.6 in assay [3]; 1.8 in assay [4]; 1.5 in assay [5]; 1.1 in assay [6]. Further, the “ECL signal ratio (column head gives no unit)” value in [7] worked out at 1.4; in assay [8], 1.8; in assay [9] it was 1.6.

B2: Fab VH4-28_IGHD7-27*01_IGHJ1*01 & L2_IGKJ1*01 (Fab, V domains shown)
VH: QVQLQESGPGLVKPSDTLSLTCAVSGYSISSSNWWGWIRQPPGKGLEWIGYIYYSGSTYYNPSLKSRVTMSVDTSKNQFSLKLSSVTAVDTAVYYCARTNWGAEYFQHWGQGTLVTVSS
VL: not shown
As for B2, the ECL signal in assay [10] was determined as 486; in assay [11], 679; in [12], 2980; in assay [13], 600; in assay [14] it was 693; in [15] it was 613. Moreover, the ECL signal is 535 in assay [16]; 740 in assay [17]; 4720 in assay [18]; 647 in [19]; 636 in [20]; 581 in assay [21].

B3: Fab VH5-51_IGHD5-18*01>3_IGHJ4*01 G100K/G104T G24T/S28R/G35V & V3-4_IGLJ1*01 (Fab, V domains shown)
VH: EVQLVQSGAEVKKPGESLKISCKTSGYRFTSYWIVWVRQMPGKGLEWMGIIYPGDSDTRYSPSFQGQVTISADKSISTAYLQWSSLKASDTAMYYCARRKYSYTYDYFDYWGQGTLVTVSS
VL: QTVVTQEPSFSVSPGGTVTLTCGLSSGSVSTSYYPSWYQQTPGQAPRTLIYSTNTRSSGVPDRFSGSILGNKAALTITGAQADDESDYYCVLYMGSGISYVFGTGTKVTVL
notes: Fab made in E. coli; VH was cloned in Plasmid A (CH1, His6 and Flag tags) and VL in Plasmid E (lambda CL); also called KT TRV; H:KT TRV & L:wt
Take B3: the kon in [22] came out at 2.09e+06 M⁻¹ s⁻¹. The Kd in assay [23] was 36.2 nM. Moreover, in assay [24], the koff was 7.17e-05 s⁻¹.

B4: Fab VH5-51_IGHD5-18*01>3_IGHJ4*01 G100K/G104T G24T/S28R/G35V & V3-4_IGLJ1*01 M94R/S96M (Fab, V domains shown)
VH: EVQLVQSGAEVKKPGESLKISCKTSGYRFTSYWIVWVRQMPGKGLEWMGIIYPGDSDTRYSPSFQGQVTISADKSISTAYLQWSSLKASDTAMYYCARRKYSYTYDYFDYWGQGTLVTVSS
VL: QTVVTQEPSFSVSPGGTVTLTCGLSSGSVSTSYYPSWYQQTPGQAPRTLIYSTNTRSSGVPDRFSGSILGNKAALTITGAQADDESDYYCVLYRGMGISYVFGTGTKVTVL
notes: Fab made in E. coli; VH was cloned in Plasmid A (CH1, His6 and Flag tags) and VL in Plasmid E (lambda CL); also called H:KT TRV & L:RM
With B4, in assay [25], the koff came out at 0.000101 s⁻¹. For the same molecule, in assay [26], the kon was 2.53e+06 M⁻¹ s⁻¹. Moreover, the Kd in [27] was found to be 40.3 nM.

B5: Fab VH5-51_IGHD5-18*01>3_IGHJ4*01 G100K/G104T S28R & V3-4_IGLJ1*01 (Fab, V domains shown)
VH: EVQLVQSGAEVKKPGESLKISCKGSGYRFTSYWIGWVRQMPGKGLEWMGIIYPGDSDTRYSPSFQGQVTISADKSISTAYLQWSSLKASDTAMYYCARRKYSYTYDYFDYWGQGTLVTVSS
VL: QTVVTQEPSFSVSPGGTVTLTCGLSSGSVSTSYYPSWYQQTPGQAPRTLIYSTNTRSSGVPDRFSGSILGNKAALTITGAQADDESDYYCVLYMGSGISYVFGTGTKVTVL
notes: Fab made in E. coli; VH was cloned in Plasmid A (CH1, His6 and Flag tags) and VL in Plasmid E (lambda CL); also called KT S28R; H:KT S28R & L:wt
Take B5: the kon in assay [28] was 740000 M⁻¹ s⁻¹. For the same molecule, in assay [29], the koff came to 8.45e-05 s⁻¹. For the same molecule, the Kd in [30] was found to be 114 nM.

B6: Fab VH5-51_IGHD5-18*01>3_IGHJ3*01 & V3-4_IGLJ1*01 (Fab, V domains shown)
VH: EVQLVQSGAEVKKPGESLKISCKGSGYSFTSYWIGWVRQMPGKGLEWMGIIYPGDSDTRYSPSFQGQVTISADKSISTAYLQWSSLKASDTAMYYCARRGYSYGYDAFDVWGQGTLVTVSS
VL: QTVVTQEPSFSVSPGGTVTLTCGLSSGSVSTSYYPSWYQQTPGQAPRTLIYSTNTRSSGVPDRFSGSILGNKAALTITGAQADDESDYYCVLYMGSGISYVFGTGTKVTVL
notes: Fab; the JH germline segment IGHJ4*01 of the parent is swapped for IGHJ3*01; Constant parts come from Plasmid A (CH1, His6, Flag) and Plasmid E (lambda CL); also called J-swap mutant IGHJ3*01
Consider B6, for which the Signal/Noise in assay [31] amounted to 3.1.
